Measurements published in patent US10112983B2, “Neuregulin variants and methods of screening and using thereof” (Zensun (Shanghai) Science & Technology, Co., Ltd., priority 2005, dated 2018).

Experiments:
[1] = molecular target: T1, ErbB2&ErbB4 co-expressing COS 7 cells (Homo sapiens, UniProt Q15303); experiment: Receptor binding affinity assay (competition of bound radiolabeled ligand) on COS7 cells; conditions: for receptor binding affinity compared with neuregulin: ErbB2&ErbB4 co-expressing cells; for EC50: Table 7 (footnote defines KD), read-out: EC50, COS7 cells (ErbB2&ErbB4 co-expression)
T1 construct: expressed in transfected cells; host or cells: COS 7
Description: (§1) To study the receptor binding affinity of neuregulin and its mutations, ErbB2&ErbB3 or ErB2&ErB4 co-expressing COS 7 are used. The cells are grown to 80% confluence. In the afternoon, after the cells reach 80% confluence, the media is changed to serum free media.

[2] = molecular target: T2, ErbB2&ErbB3 co-expressing COS 7 cells (Homo sapiens, UniProt P21860); experiment: as above; conditions: for receptor binding affinity compared with neuregulin: ErbB2&ErbB3 co-expressing cells; for EC50: Table 7 (footnote defines KD), read-out: EC50, COS7 cells (ErbB2&ErbB3 co-expression)
T2 construct: expressed in transfected cells; host or cells: COS 7
Description: as §1

[3] = molecular target: T1, ErbB2&ErbB4 co-expressing COS 7 cells; experiment: Signal transduction: AKT phosphorylation by western blot; type: cell-based; conditions: 10 minutes
Description: (§2) Similarly, to study the signal transduction ability of neuregulin and its mutations, ErbB2&ErbB3 or ErbB2&ErbB4 co-expressing COS 7 cells are used. The cells are grown to 80% confluence. In the afternoon, after the cells reach 80% confluence, the media is changed to serum free media. Then after 24 hours, different amounts of neuregulin or neuregulin variants are added into separate wells containing the cells. After 10 minutes, loading buffer is added to lyse the cells. The sample is then harvested and loaded into a separate well of gel for electrophoresis and western blot analysis.

[4] = molecular target: T2, ErbB2&ErbB3 co-expressing COS 7 cells; experiment: as above; type: cell-based; conditions: 10 minutes
Description: as §2

Molecule | receptor binding affinity compared with neuregulin [1] | EC50 [1] [nM] | receptor binding affinity compared with neuregulin [2] | EC50 [2] [nM] | AKT phosphorylation compared with neuregulin [3] | AKT phosphorylation compared with neuregulin [4]
L3A: neuregulin fragment (177-237) with alanine substitution for the 3rd amino acid (protein) SHAVKCAEKEKTFCVNGGECFMVKDLSNPSRYLCKCPNEFTGDRCQNYVMASFYKAEELYQ | much lower | 1060 | nearly the same receptor binding affinity | 1150 | more AKT phosphorylation than neuregulin | less AKT phosphorylation than neuregulin
D43A: neuregulin fragment (177-237) with alanine substitution for the 43rd amino acid (protein) SHLVKCAEKEKTFCVNGGECFMVKDLSNPSRYLCKCPNEFTGARCQNYVMASFYKAEELYQ | much higher |  | nearly the same receptor binding affinity |  | more AKT phosphorylation than neuregulin | less AKT phosphorylation than neuregulin
NRG: the 177-237 amino acids fragment of neuregulin1β2 (SEQ ID NO:1) (protein, listed as Homo sapiens) SHLVKCAEKEKTFCVNGGECFMVKDLSNPSRYLCKCPNEFTGDRCQNYVMASFYKAEELYQ |  | 282 |  | 1410 |  | 
8A47A: neuregulin double mutant, simultaneous alanine substitutions for the 8th and 47th amino acids of the neuregulin fragment (protein) SHLVKCAAKEKTFCVNGGECFMVKDLSNPSRYLCKCPNEFTGDRCQAYVMASFYKAEELYQ |  |  |  |  | much more AKT phosphorylation than neuregulin | nearly same AKT phosphorylation as neuregulin
